Experimental data: the RNAGym collection of RNA variant scans (doi:10.1073/pnas.2313332121)

B1: TPR t1 (parent)
chain: GACCAAUCUGCCCUCAGAGCUCGAGAACAUCUUCGGAUGCAGAGGAGGCAGGCUUCGGUGGCGCGAUAGCGCCAACGUCCUCAACCUCCAAUGCAUCCCACCACAUGAUGAUGCCUGAAGAGCCUUGGUUUUUUG

Variants of: B1
Test: polymerase ribozyme fitness, log enrichment relative to wild type (log ratio); higher = more active; in vitro selection for triplet polymerase activity
Procedure, shortened: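 Fitness is a logarithmic measure of how a genotype enriched relative to the wild type, with replicate averages weighted by inverse variance. The logarithm uses base 2, and enrichment came from Illumina sequencing of input and output libraries. Those libraries were PCR-built, transcribed mutants of each subunit of a heterodimeric triplet polymerase ribozyme, passed through one triplicate in vitro selection round that included frozen incubation at −7 °C, gel excision of extended constructs and streptavidin-bead capture. Genotypes were kept only if they had ≥10 input reads and ≥1 read per output.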

Variant	polymerase ribozyme fitness (log ratio)
C8U A50G C72G	-0.53
C8U A27U	-1.79
C8U G44A G60A A121C G122U	-1.04
C8G G36U U54C A91C C124A	-0.94
C8G G52C C62U C89U	-1.08
C8U C13U G35C A46U C115A	-3.54
C8U A24G G36A G44U C72U	-2.98
C8U G63C C102U	-2.5
C8G G35C C89U	-4.98
C8G G71A C73A C94U C104U	-1.01
C8U C12G G69C	-1.06
C8G U78C A105C	-2.32
C8U G10C C13A C34A C40U C98G A103C	-3.92
C8U C40U G52A C79G	-0.696
C8U A37C C53U	0.264
C8U C53G	-0.0198
C8G G113U	-1.24
C8G G135U	-0.819
C8U G69A	-1.72
C8U G69U	0.891
C8U C70G C97U C124U U131A	-1.27

Variant	polymerase ribozyme fitness (log ratio)
C8G G10A A16C A95U G122U	-0.858
C8G G45U G63C A83U A91C U112A	-1.6
C8G G122A	0.556
C8U C104U	0.275
C8G G58A C70U U96A	-1.13
C8G U14G A43C G47U C82G U133A	-3.36
C8G G52U G60A U96G	-0.693
C8U G44C A83U	-0.336
C8U C22U C53U A100U	-5.15
C8U U14A A41C C64U G93U C115U U125G U132A U133G	-6.39
C8U C56U C82A C97A G117C	-7.35
C8U G71A C88U	-0.224
C8U C34U	-3.66
C8U C34G	-5.47
C8G U87C A105C C124G	0.541
C8U U14G G45A G69A	-2.72
C8U A46U C70U G122U	-0.612
C8U G47C G57A U92C	-4.38
C8U C20U U78C C82G C123U	0.246
C8U U14A G61U C70U C104U C124A G135C	0.783
C8U G60U U106A G122A	0.855

Variant	polymerase ribozyme fitness (log ratio)
C8U G48A C72U	0.0222
C8U C115U G117A	-0.753
C8U A26G C49U G57C U112A	-0.963
C8U G44U G52A G63C A84U C85A	-6.83
C8U C56U G61A A95U G120A	-6.04
C8G G71A	0.0703
C8G G71U	0.189
C8G G71C	-0.095
C8G G61A U87G C123A	1.64
C8U C102A	-1.17
C8U C13U A43G	-1.25
C8U C15A G69A C73A C102U C123A	-5.63
C8U G39A C40A C62U G93U A111C	-0.367
C8U C49G C123U	1.73
C8U C88A A90U	-0.855
C8G G48U G61U G93U U112A C124A	-0.568
C8G G36A G44A C70G	-4.2
C8U C56A	0.00842
C8U C56U	0.434
C8U G45A	0.126
C8G G69C G113A	-1.36

Variant	polymerase ribozyme fitness (log ratio)
C8U A46G G48C C72G C80U A105C G122A	-5.9
C8U G35A	-3.11
C8G U125A	0.0447
C8U C13A A37U G47A C62U G122A	-1.54
C8U G93A G110U G127C	-2.37
C8G C124G	1.92
C8U U55C C64G U112A	-6.22
C8G G48U G93U U112A C124A	-0.874
C8G U14C G39C A100C	-0.867
C8U U59G U96A G110U	-2.31
C8U G57U U78A C104A	-1.43
C8G U14C C79U U87A U112A	2.12
C8U C64U	0.265
C8U C76G A90C C101U	-1.52
C8U C70G U78C G113A A121G	-3.57
C8G G48U G58C G60U U125G	-0.353
C8G G48A G120C U125C	1.03
C8U C70U C97U C124U U131A	0.416
C8U A26U C62U G93A	-2.86
C8U G61U C70G	-4.76
C8U G61A C70U U87G C89G	-5.05
